According to paper PMC4451881, “Functional display of heterotetrameric human protein kinase CK2 on Escherichia coli: a novel tool for drug discovery” (Microbial Cell Factories, 2015):

Target: T1, CK2α-AT, autotransporter fusion protein with the human protein kinase CK2 α-subunit as passenger domain (human, UniProt P68400 2-391)
T1 sequence (looked up): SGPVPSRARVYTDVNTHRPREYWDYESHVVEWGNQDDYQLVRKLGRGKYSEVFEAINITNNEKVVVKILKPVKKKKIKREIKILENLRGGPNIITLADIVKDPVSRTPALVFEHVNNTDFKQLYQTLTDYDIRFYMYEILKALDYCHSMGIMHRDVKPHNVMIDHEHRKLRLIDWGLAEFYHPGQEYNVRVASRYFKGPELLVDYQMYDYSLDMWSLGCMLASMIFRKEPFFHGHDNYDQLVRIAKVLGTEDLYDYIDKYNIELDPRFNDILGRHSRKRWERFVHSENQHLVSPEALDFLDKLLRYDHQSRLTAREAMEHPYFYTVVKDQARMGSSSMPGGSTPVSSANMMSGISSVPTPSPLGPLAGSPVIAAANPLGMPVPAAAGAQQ
Assay: cell-based or functional assay

B1: CK2β-AT, autotransporter fusion protein with the human protein kinase CK2 β-subunit as passenger domain (natural protein)
chain: not shown
radiometric whole-cell kinase activity normalised to the expression level of CK2α-AT, cells co-displaying both subunits against cells displaying CK2α alone: > 5 fold
